# B1: GST-hFis1 (hFis1-ΔC, without 30 amino acids at the C terminus) (domain or fragment, human, UniProt Q9Y3D6 1-122, looked up)
# chain: MEAVLNELVSVEDLLKFEKKFQSEKAAGSVSKSTQFEYAWCLVRSKYNDDIRKGIVLLEELLPKGSKEEQRDYVFYLAVGNYRLKEYEKALKYVRGLLQTEPQNNQAKELERLIDKAMKKDG
# Target: Drp1-6His phosphorylated at Ser600 by CaMKIα (UniProt O00429-4 1-699, phosphoserine at 600 (phosphorylated in vitro by CaMKIα))
# Assay: pull-down
binder,measurement,value
B1,binding result,binds

# From paper PMC2500141 (The Journal of Cell Biology, 2008)
